Legend:
[1] = target: T1, human full-length recombinant tau (2N4R) (human, UniProt P10636 2-758); assay: SPR, Biacore T200, 25 C, mAb captured by anti-Fc on CM4 chip, tau in solution, 1:1 Langmuir fit
T1 construct: also called full length tau protein; full-length recombinant Tau protein
Method: (§1) The interactions of anti-tau antibodies with human full-length recombinant tau (2N4R) were studied by SPR using a Biacore T200 at 25° C. with HBS pH 7.4 buffer, supplemented with 3 mM EDTA, and 0.05% Tween 20. Briefly, a biosensor surface was prepared by coupling a mixture of anti-mouse/anti-human IgG Fcγ-fragment specific antibody to the surface of a CM4 sensor chip using manufacturer's instructions for amine-coupling chemistry (>4000 response units (RU)). The coupling buffer was 10 mM sodium acetate, pH 4.5. The anti-tau antibodies were diluted in the running buffer and injected to obtain enough capture to enable detection of antigen binding. Capture of anti-tau mAbs was followed by injection of recombinantly expressed tau solutions ranging from 0.12 nM to 75 nM at 5-fold dilutions. The association and dissociation were monitored for 3 minutes and 60 min respectively at 50 μL/min flow rate. Regeneration of the sensor surface was performed with 0.85% H₃PO₄. The binding sensorgrams were fitted using to a 1:1 Langmuir binding model to obtain on-rates, off-rates, and affinities. PT1B635 and PT1B901 bound to full length tau protein with similar tight affinities as the parent mAbs, PT/66 or PT1B545 (FIG. 3 and Table 2 below).

[2] = target: T1, human full-length recombinant tau (2N4R); assay: SPR, Biacore T200, 25 C, mAb captured by anti-Fc on CM4 chip, tau in solution, 1:1 Langmuir fit; koff based on 1-hour limit, 5% dissociation
Method: as §1

[3] = target: T1, human full-length recombinant tau (2N4R); assay: SPR, mAb captured, tau in solution, single-cycle kinetics, 1:1 Langmuir fit; koff based on 2-hour limit, 5% dissociation
[4] = target: T1, human full-length recombinant tau (2N4R); assay: SPR, mAb captured, tau in solution, single-cycle kinetics, 120 min dissociation, 1:1 Langmuir fit

T1 sequence (P10636 other isoform, or with tags, fused parts or gaps limits assumed): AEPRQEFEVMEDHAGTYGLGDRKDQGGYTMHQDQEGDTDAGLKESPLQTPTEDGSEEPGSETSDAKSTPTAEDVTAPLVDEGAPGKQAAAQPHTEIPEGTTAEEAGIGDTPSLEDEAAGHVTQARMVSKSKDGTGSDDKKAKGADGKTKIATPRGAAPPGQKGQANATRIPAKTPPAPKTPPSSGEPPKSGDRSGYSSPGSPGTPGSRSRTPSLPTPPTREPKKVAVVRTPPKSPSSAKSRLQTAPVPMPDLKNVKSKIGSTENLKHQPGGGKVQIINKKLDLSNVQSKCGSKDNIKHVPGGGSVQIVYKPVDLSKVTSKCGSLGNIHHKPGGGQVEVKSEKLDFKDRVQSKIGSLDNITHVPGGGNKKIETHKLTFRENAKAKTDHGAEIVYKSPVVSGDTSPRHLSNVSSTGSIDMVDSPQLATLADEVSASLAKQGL

Binder | Kd [1] | kon [1] | koff [2] | koff [3] | Kd [4] | kon [4] | koff [1]
PT1B635 (antibody, human IgG1, kappa, V domains shown, also called humanized PT/66 variant) VH: QVQLVQSGAEVKKPGASVKVSCKASGYTFTSYWITWVRQAPGQGLEWMGDIHPGRGSTKYAQKLQGRVTLTTDTSTSTAYMELRSLRSDDTAVYYCARRWGFDYWGQGTLVTVSS VL: DIVITQTPLSLPVTPGEPASISCRSSKSLLYKDGKTYLNWFLQKPGQSPQLLIYLMSTRASGVPDRFSGSGSGTDFTLKISRVEAEDVGVYYCQQLVDYPLTFGQGTKLEIKR | < 0.041 nM | 370000 M⁻¹ s⁻¹ | < 1.42e-05 s⁻¹ |  |  |  | 
PT1B901 (antibody, human IgG1, kappa, V domains shown, also called humanized PT/66 variant with G44L in LCDR1) VH: QVQLVQSGAEVKKPGASVKVSCKASGYTFTSYWITWVRQAPGQGLEWMGDIHPGRGSTKYAQKLQGRVTLTTDTSTSTAYMELRSLRSDDTAVYYCARRWGFDYWGQGTLVTVSS VL: DIVITQTPLSLPVTPGEPASISCRSSKSLLYKDLKTYLNWFLQKPGQSPQLLIYLMSTRASGVPDRFSGSGSGTDFTLKISRVEAEDVGVYYCQQLVDYPLTFGQGTKLEIKR | 0.059 nM | 300000 M⁻¹ s⁻¹ |  |  |  |  | 2e-05 s⁻¹
PT/66 anti-PHF-Tau monoclonal Ab (mouse parent) (antibody, V domains shown, Murine mAb) VH: QVQLQQPGAELVKPGASVKMSCKASGYTFTSYWITWVKQRPGQGLEWIGDIHPGRGSTKSNEKFKSKATLTVDTSSSTAYMQFSSLTSEDSAVYYCARRWGFDYWGQGTTLTVSS VL: DIVITQDELSNPVTSGESVSISCRSSKSLLYKDGKTYLNWFLQRPGQSPQLLIYLMSTRASGVSDRFSGSGSGTDFTLEISRVKAEDVGVYYCQQLVDYPLTFGAGTKLELK | < 0.031 nM | 450000 M⁻¹ s⁻¹ | < 1.42e-05 s⁻¹ |  |  |  | 

Other lines, results leading:

Kd [1] | kon [1] | koff [2] | koff [3] | Kd [4] | kon [4] | koff [1] | Binder
 |  |  | < 1.19e-05 s⁻¹ | < 0.00618 nM | 1.99e+06 M⁻¹ s⁻¹ |  | PT1B1183 (antibody, human IgG1, kappa, V domains shown, also called humanized antibody derived from PT1B1153 by modifying the 2nd light chain framework region) VH: QVQLVQSGAEVKKPGASVKVSCKASGYTFTSYWITWVRQRPGQGLEWMGDIHPGRGSTKYAQKLQGRVTMTTDTSTSTAYMELRSLRSDDTAVYYCARRWGFDYWGQGTLVTVSS VL: DIVMTQTPLSSPVTLGQPASISCRSSKSLLYKDGKTYLNWFQQRPGQSPRLLIYLMSTRASGVPDRFSGSGAGTDFTLKISRVEAEDVGVYYCQQLVDYPLTFGQGTKLEIKR
< 0.028 nM | 510000 M⁻¹ s⁻¹ | < 1.42e-05 s⁻¹ |  |  |  |  | PT1B545 (antibody, mouse IgG2a, kappa, V domains shown, Recombinant version of the parent mAb PT/66, with mouse constant regions; also called rec. parent; recombinant parent of PT/66) VH: QVQLQQPGAELVKPGASVKMSCKASGYTFTSYWITWVKQRPGQGLEWIGDIHPGRGSTKSNEKFKSKATLTVDTSSSTAYMQFSSLTSEDSAVYYCARRWGFDYWGQGTTLTVSS VL: DIVITQDELSNPVTSGESVSISCRSSKSLLYKDGKTYLNWFLQRPGQSPQLLIYLMSTRASGVSDRFSGSGSGTDFTLEISRVKAEDVGVYYCQQLVDYPLTFGAGTKLELKR
